The text below walks through data of paper PMC10361598 (Science Advances, 2023).

The target of assay [1] is T1, CXCL12 (UniProt P48061 22-93). Put plainly: graphene field-effect transistor array.
For assay [2], the target named is T1, CXCL12. Put plainly: graphene field-effect transistor array. The source holds these as a separate data set.

Like-named read-outs stand apart in the source and are kept apart here.

T1 sequence (P48061 22-93): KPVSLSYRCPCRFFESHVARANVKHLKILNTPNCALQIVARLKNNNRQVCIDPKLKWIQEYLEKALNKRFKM

B1: CXCR4^QTY-Fc (Fc fusion)
chain: PSTCSKPTCPPPELLGGPSVFIFPPKPKDTLMISRTPEVTCVVVDVSQDDPEVQFTWYINNEQVRTARPPLREQQFNSTIRVVSTLPITHQDWLRGKEFKCKVHNKALPAPIEKTISKARGQPLEPKVYTMGPPREELSSRSVSLTCMINGFYPSDISVEWEKNGKAEDNYKTTPAVLDSDGSYFLYNKLSVPTSEWQRGDVFTCSVMHEALHNHYTQKSISRSPGK
modifications: RED-NHS fluorescent label (Monolith NT Protein Labeling Kit RED-NHS), in the MST only
What is called Kd is the constant that tells how readily two partners part at equilibrium. Read a low Kd as tighter binding. On to B1, for which the Kd with CXCL12 [1] was 24.8 ± 13 nM; with CXCL12 [2], 20.1 ± 9.1 nM.
